Measurements reported in paper PMC3401385 (Cell Reports, 2012).

Key:
eIF2β K2K3 = molecular target: T1, eIF2β K2K3 (Saccharomyces cerevisiae, UniProt P09064); test: ITC
T1 chain: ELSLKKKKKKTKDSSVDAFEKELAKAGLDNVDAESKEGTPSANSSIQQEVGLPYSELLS

[1] = molecular target: human eIF5-CTD (carboxyl-terminal domain of eukaryotic initiation factor 5), wild type (human, UniProt P55010 225-407); test: ITC
eIF2 ternary complex = molecular target: T2, eIF2 ternary complex (Saccharomyces cerevisiae, UniProt P20459)
T2 chain 1: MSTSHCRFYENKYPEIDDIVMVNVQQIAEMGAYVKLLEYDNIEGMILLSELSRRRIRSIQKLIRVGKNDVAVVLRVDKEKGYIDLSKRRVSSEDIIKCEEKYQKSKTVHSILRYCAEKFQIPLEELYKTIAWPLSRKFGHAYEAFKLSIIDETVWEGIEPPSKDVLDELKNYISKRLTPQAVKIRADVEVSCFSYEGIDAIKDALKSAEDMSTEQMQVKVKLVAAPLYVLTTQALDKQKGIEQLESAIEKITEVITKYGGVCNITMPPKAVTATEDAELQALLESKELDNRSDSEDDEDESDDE
T2 chain 2: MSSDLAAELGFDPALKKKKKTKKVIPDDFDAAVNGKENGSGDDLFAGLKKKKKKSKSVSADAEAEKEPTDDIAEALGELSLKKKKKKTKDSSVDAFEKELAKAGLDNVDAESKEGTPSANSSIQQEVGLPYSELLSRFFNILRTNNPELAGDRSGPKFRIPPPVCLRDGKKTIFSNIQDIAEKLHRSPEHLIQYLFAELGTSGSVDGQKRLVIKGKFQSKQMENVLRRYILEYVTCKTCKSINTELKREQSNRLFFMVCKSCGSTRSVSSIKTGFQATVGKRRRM
T2 chain 3: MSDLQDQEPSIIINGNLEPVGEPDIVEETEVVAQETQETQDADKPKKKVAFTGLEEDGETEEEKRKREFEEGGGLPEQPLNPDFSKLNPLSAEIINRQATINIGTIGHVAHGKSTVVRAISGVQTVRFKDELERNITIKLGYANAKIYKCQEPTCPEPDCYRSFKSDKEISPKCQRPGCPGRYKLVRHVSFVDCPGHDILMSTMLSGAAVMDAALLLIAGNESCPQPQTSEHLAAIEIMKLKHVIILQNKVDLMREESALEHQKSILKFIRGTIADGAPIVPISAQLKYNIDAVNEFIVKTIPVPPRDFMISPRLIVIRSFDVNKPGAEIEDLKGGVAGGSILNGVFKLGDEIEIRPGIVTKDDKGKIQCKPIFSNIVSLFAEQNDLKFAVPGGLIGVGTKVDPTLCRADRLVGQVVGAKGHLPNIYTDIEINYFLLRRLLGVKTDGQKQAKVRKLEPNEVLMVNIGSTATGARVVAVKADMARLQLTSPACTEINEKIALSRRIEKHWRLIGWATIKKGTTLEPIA

Chain of human eIF5-CTD (carboxyl-terminal domain of eukaryotic initiation factor 5), wild type (P55010 225-407): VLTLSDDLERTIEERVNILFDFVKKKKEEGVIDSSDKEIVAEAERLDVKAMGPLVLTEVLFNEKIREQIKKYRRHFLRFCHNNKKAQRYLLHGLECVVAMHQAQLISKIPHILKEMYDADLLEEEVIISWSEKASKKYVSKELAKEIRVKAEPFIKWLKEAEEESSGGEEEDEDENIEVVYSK

B1: eIF5 CTD (protein)
chain: VNSELTQLDEYGEWILEQAGEDKENLPSDVELYKKAAELDVLNDPKIGCVLAQCLFDEDIVNEIAEHNAFFTKILVTPEYEKNFMGGIERFLGLEHKDLIPLLPKILVQLYNNDIISEEEIMRFGTKSSKKFVPKEVSKKVRRAAKPFITWLETAESDDDEEDDE
Binder B1 has a Kd (eIF2β K2K3) of roughly 4 µM.

B2: eIF2β-K2K3 (eIF2β residues 53-135, with the K2 and K3 lysine boxes) (domain or fragment, UniProt P20042 53-135, looked up)
chain: DLEADEEDTRKKDASDDLDDLNFFNQKKKKKKTKKIFDIDEAEEGVKDLKIESDVQEPTEPEDDLDIMLGNKKKKKKNVKFPD
For B2, the Kd [1] was roughly 4 µM.

B3: eIF5 (protein)
chain: MSINICRDNHDPFYRYKMPPIQAKVEGRGNGIKTAVLNVADISHALNRPAPYIVKYFGFELGAQTSISVDKDRYLVNGVHEPAKLQDVLDGFINKFVLCGSCKNPETEIIITKDNDLVRDCKACGKRTPMDLRHKLSSFILKNPPDSVSGSKKKKKAATASANVRGGGLSISDIAQGKSQNAPSDGTGSSTPQHHDEDEDELSRQIKAAASTLEDIEVKDDEWAVDMSEEAIRARAKELEVNSELTQLDEYGEWILEQAGEDKENLPSDVELYKKAAELDVLNDPKIGCVLAQCLFDEDIVNEIAEHNAFFTKILVTPEYEKNFMGGIERFLGLEHKDLIPLLPKILVQLYNNDIISEEEIMRFGTKSSKKFVPKEVSKKVRRAAKPFITWLETAESDDDEEDDE
In the case of B3, the Kd (eIF2 ternary complex) is reported as 0.1 µM.
